Laboratory results as given in patent publication US8357523B2, “Beta-glucosidase variant enzymes and related polynucleotides” (Codexis, Inc., priority 2009, dated 2013).
Changes are numbered by the printed parent chain.

B1: 74 (protein)
chain: STAIAQEGAAPAAILHPEKWPRPATQRLIDPAVEKRVDALLKQLSVEEKVGQVIQGDIGTITPEDLRKYPLGSILAGGNSGPNGDDRAPPKEWLDLADAFYRVSLEKRPGHTPIPVLFGIDAVHGHGKIGSATIFPHNIALGATRDPELLRRIGEVTAVEMAATGIDWTFAPALSVVRDDRWGRTYEGFSEDPEIVAAYSPAIVEGVQGKFGSKDFMAPGRIVACAKHFLADGGTDQGRDQGDARISEDELIRIHNAGYPPAIDAGVLTVMASFSSWQGIKHHGHKQLLTDVLKGQMGFNGFIVGDWNAHDQVPGCTKFNCPTSLIAGLDMYMAADSWKQLYENTLAQVKDGTIPMARLDDAVRRILRVKVLAGLFEKPAPKDRPGLPGLETLGSPEHRAVGREAVRKSLVLLKNDKGTLPLSPKARVLVAGDGADNIGKQSGGWTISWQGTGNRNDEFPGATSILGGIRDAVADAGGSVEFDVAGQYKTKPDVAIVVFGEEPYAEFQGDVETLEYQPDQKQDLALLKKLKDQGIPVVAVFLSGRPMWVNPELNASDAFVAAWLPGTEGGGVADVLFTDKAGKVQHDFAGKLSYSWPRTAAQTTVNRGDADYNPLFAYGYGLTYKDKSKVGTLPEESGVPAEARQNAGIYFRAGALRLPGRFL
B2: 159 (protein)
chain: B1 chain with N79D, K128N, A162T, A198S, P201A
B3: 169 (protein)
chain: B1 chain with N79D, K128N, V159Q, A162T, F211Y
B4: 156 (protein)
chain: B1 chain with N79D, A143M, A162T, A198S, P201A, I222S, Q237R
B5: 178 (protein)
chain: B1 chain with K128N, A198S, P201A, F211Y, I222A, A373T
B6: 171 (protein)
chain: B1 chain with N79D, K128N, V159E, A198S, P201A, F211Y, P219V, C225S
B7: 158 (protein)
chain: B1 chain with N79D, K128N, I166T, A198S, P201A, F211Y
B8: 80 (protein)
chain: B1 chain with A162T, P201A
B9: 180 (protein)
chain: B1 chain with N79D, D146S, P201A, A655T
B10: 78 (protein)
chain: B1 chain with K128N, P201A
B11: 164 (protein)
chain: B1 chain with N79D, D146S, P201A
B12: 153 (protein)
chain: B1 chain with N79D, E92V, A143M, F211Y, I222S
B13: 181 (protein)
chain: B1 chain with A143M, V159E, P201A, F211Y
B14: 76 (protein)
chain: B1 chain with P201A, C225S
B15: 79 (protein)
chain: B1 chain with P201A
B16: 167 (protein)
chain: B1 chain with N79D, P201A, C225S
B17: 149 (protein)
chain: B1 chain with N79D, D146S, V159Q, F211Y
B18: 175 (protein)
chain: B1 chain with N79D, K128N, D146S, A198S, P201A, F211Y
B19: 173 (protein)
chain: B1 chain with I14M, N79D, A162T, F211Y, Q487R
B20: 155 (protein)
chain: B1 chain with N79D, K128N, A198S, P201A
B21: 165 (protein)
chain: B1 chain with K128N, A143M
B22: 75 (protein)
chain: B1 chain with K128N, P201A, I222V, C225S
B23: 154 (protein)
chain: B1 chain with K128N, A143M, V159Q, F211Y, I222A, F229I
B24: 162 (protein)
chain: B1 chain with K128N, A173C, F211Y, P219V, C225S
B25: 152 (protein)
chain: B1 chain with N79D, K128N, V159Q, F211Y, I222A
B26: 172 (protein)
chain: B1 chain with K128N, V159Q, P201A, F211Y, I222S, G534E
B27: 163 (protein)
chain: B1 chain with N79D, D146S, A162T, A173C, A198S, P201A, F211Y, C225S
B28: 160 (protein)
chain: B1 chain with K128N, D146S, V159Q, F211Y, I222A
B29: 151 (protein)
chain: B1 chain with K128N, A143M, A162T, A173C, A198S, P201A, F211Y, C225S, L514Q
B30: 168 (protein)
chain: B1 chain with V159Q, F211Y, I222S
B31: 174 (protein)
chain: B1 chain with E34D, N79D, A143M, V159E, F211Y, C225S
B32: 179 (protein)
chain: B1 chain with N79D, A173C, A198S, P201A, F211Y, C225S
B33: 77 (protein)
chain: B1 chain with K128N
B34: 170 (protein)
chain: B1 chain with D146S, V159E, F211Y, A573V
B35: 182 (protein)
chain: B1 chain with N79D, I114T, V159Q, A173C, A198S, P201A, F211Y, P219V, C225S
B36: 166 (protein)
chain: B1 chain with N79D, K128N, G154V, P201A, F211Y
B37: 150 (protein)
chain: B1 chain with N79D, I114V, A162T, A198S, P201A, F211Y

Assay: High throughput cellobiose assay: fold improvement in cellobiase activity of CelA variants over a control enzyme (Tables 2A-2D, 3, 5, 6, 7)
Type: biochemical
Conditions: 3.3 g/l cellobiose, 55° C. and pH 6.0

Molecule	Fold improvement over Control Variant No. 5 from Table 2A
B1	++ (++ = 1.1 to 6 fold improvement over control Variant No. 2)
B2	+++ (+++ = 6 to 13 fold improvement over control Variant No. 2)
B3	+++ (+++ = 6 to 13 fold improvement over control Variant No. 2)
B4	+++ (+++ = 6 to 13 fold improvement over control Variant No. 2)
B5	+++ (+++ = 6 to 13 fold improvement over control Variant No. 2)
B6	+++ (+++ = 6 to 13 fold improvement over control Variant No. 2)
B7	++ (++ = 1.1 to 6 fold improvement over control Variant No. 2)
B8	+++ (+++ = 6 to 13 fold improvement over control Variant No. 2)
B9	+++ (+++ = 6 to 13 fold improvement over control Variant No. 2)
B10	++ (++ = 1.1 to 6 fold improvement over control Variant No. 2)
B11	+++ (+++ = 6 to 13 fold improvement over control Variant No. 2)
B12	++ (++ = 1.1 to 6 fold improvement over control Variant No. 2)
B13	+++ (+++ = 6 to 13 fold improvement over control Variant No. 2)
B14	++ (++ = 1.1 to 6 fold improvement over control Variant No. 2)
B15	++ (++ = 1.1 to 6 fold improvement over control Variant No. 2)
B16	++ (++ = 1.1 to 6 fold improvement over control Variant No. 2)
B17	+++ (+++ = 6 to 13 fold improvement over control Variant No. 2)
B18	+++ (+++ = 6 to 13 fold improvement over control Variant No. 2)
B19	+++ (+++ = 6 to 13 fold improvement over control Variant No. 2)

Molecule	Fold improvement over Control Variant No. 5 from Table 2A
B20	+++ (+++ = 6 to 13 fold improvement over control Variant No. 2)
B21	+++ (+++ = 6 to 13 fold improvement over control Variant No. 2)
B22	++ (++ = 1.1 to 6 fold improvement over control Variant No. 2)
B23	++ (++ = 1.1 to 6 fold improvement over control Variant No. 2)
B24	+++ (+++ = 6 to 13 fold improvement over control Variant No. 2)
B25	+++ (+++ = 6 to 13 fold improvement over control Variant No. 2)
B26	+++ (+++ = 6 to 13 fold improvement over control Variant No. 2)
B27	+++ (+++ = 6 to 13 fold improvement over control Variant No. 2)
B28	+++ (+++ = 6 to 13 fold improvement over control Variant No. 2)
B29	+++ (+++ = 6 to 13 fold improvement over control Variant No. 2)
B30	+++ (+++ = 6 to 13 fold improvement over control Variant No. 2)
B31	++ (++ = 1.1 to 6 fold improvement over control Variant No. 2)
B32	+++ (+++ = 6 to 13 fold improvement over control Variant No. 2)
B33	++ (++ = 1.1 to 6 fold improvement over control Variant No. 2)
B34	++ (++ = 1.1 to 6 fold improvement over control Variant No. 2)
B35	++ (++ = 1.1 to 6 fold improvement over control Variant No. 2)
B36	+++ (+++ = 6 to 13 fold improvement over control Variant No. 2)
B37	+++ (+++ = 6 to 13 fold improvement over control Variant No. 2)
